From paper PMC3085893 (European journal of cell biology, 2011)

B1: GFP-AFAP1 (Actin Filament-Associated Protein of 110 kDa) (natural protein, UniProt Q8N556 1-730, looked up)
chain: MEELIVELRLFLELLDHEYLTSTVREKKAVITNILLRIQSSKGFDVKDHAQKQETANSLPAPPQMPLPEIPQPWLPPDSGPPPLPTSSLPEGYYEEAVPLSPGKAPEYITSNYDSDAMSSSYESYDEEEEDGKGKKTRHQWPSEEASMDLVKDAKICAFLLRKKRFGQWTKLLCVIKDTKLLCYKSSKDQQPQMELPLQGCNITYIPKDSKKKKHELKITQQGTDPLVLAVQSKEQAEQWLKVIKEAYSGCSGPVDSECPPPPSSPVHKAELEKKLSSERPSSDGEGVVENGITTCNGKEQVKRKKSSKSEAKGTVSKVTGKKITKIISLGKKKPSTDEQTSSAEEDVPTCGYLNVLSNSRWRERWCRVKDNKLIFHKDRTDLKTHIVSIPLRGCEVIPGLDSKHPLTFRLLRNGQEVAVLEASSSEDMGRWIGILLAETGSSTDPEALHYDYIDVEMSASVIQTAKQTFCFMNRRVISANPYLGGTSNGYAHPSGTALHYDDVPCINGSLKGKKPPVASNGVTGKGKTLSSQPKKADPAAVVKRTGSNAAQYKYGKNRVEADAKRLQTKEEELLKRKEALRNRLAQLRKERKDLRAAIEVNAGRKPQAILEEKLKQLEEECRQKEAERVSLELELTEVKESLKKALAGGVTLGLAIEPKSGTSSPQSPVFRHRTLENSPISSCDTSDTEGPVPVNSAAVLKKSQAAPGSSPCRGHVLRKAKEWELKNGT
B2: GFP-AFAP1L1 (Actin Filament Associated Protein 1 Like 1) (natural protein, human, UniProt Q8TED9 1-768, looked up)
chain: MDRGQVLEQLLPELTGLLSLLDHEYLSDTTLEKKMAVASILQSLQPLPAKEVSYLYVNTADLHSGPSFVESLFEEFDCDLSDLRDMPEDDGEPSKGASPELAKSPRLRNAADLPPPLPNKPPPEDYYEEALPLGPGKSPEYISSHNGCSPSHSIVDGYYEDADSSYPATRVNGELKSSYNDSDAMSSSYESYDEEEEEGKSPQPRHQWPSEEASMHLVRECRICAFLLRKKRFGQWAKQLTVIREDQLLCYKSSKDRQPHLRLALDTCSIIYVPKDSRHKRHELRFTQGATEVLVLALQSREQAEEWLKVIREVSKPVGGAEGVEVPRSPVLLCKLDLDKRLSQEKQTSDSDSVGVGDNCSTLGRRETCDHGKGKKSSLAELKGSMSRAAGRKITRIIGFSKKKTLADDLQTSSTEEEVPCCGYLNVLVNQGWKERWCRLKCNTLYFHKDHMDLRTHVNAIALQGCEVAPGFGPRHPFAFRILRNRQEVAILEASCSEDMGRWLGLLLVEMGSRVTPEALHYDYVDVETLTSIVSAGRNSFLYARSCQNQWPEPRVYDDVPYEKMQDEEPERPTGAQVKRHASSCSEKSHRVDPQVKVKRHASSANQYKYGKNRAEEDARRYLVEKEKLEKEKETIRTELIALRQEKRELKEAIRSSPGAKLKALEEAVATLEAQCRAKEERRIDLELKLVAVKERLQQSLAGGPALGLSVSSKPKSGETANKPQNSVPEQPLPVNCVSELRKRSPSIVASNQGRVLQKAKEWEMKKT

Key:
GST-Src SH3 domain = GST-Src SH3 domain (UniProt P12931 84-145); assay: pull-down
GST-cortactin SH3 domain = GST-cortactin SH3 domain (UniProt Q14247 492-550); assay: pull-down
GST-cortactin SH3 domain, sequence (Q14247 492-550): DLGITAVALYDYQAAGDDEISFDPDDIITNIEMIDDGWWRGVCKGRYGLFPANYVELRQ

Row | Binder | fold increase in the ratio pulled down over GST control (GST-Src SH3 domain) [fold] | fold increase in the ratio pulled down over GST control (GST-cortactin SH3 domain) [fold]
1 | B1 | 14 | 
2 | B2 |  | ~9
